# Test results taken from patent US20220048967A1 (published 2022).
# Numbered stars: 1 amine (or outer) side, 2 acyl side, 3 side chain; on linkers, the order of the positions; unused ones are H or OH. Square brackets hold non-standard residues; d marks the D form. Side chains are listed from the residue outwards. Ends that are not written are not given here. * marks the point of attachment. C20 diacid = O=C(O)CCCCCCCCCCCCCCCCCCC(=O)*; αMePhe(2-F) = C[C@](N)(Cc1ccccc1F)C(=O)O; γGlu = O=C(O)[C@H](CCC(=O)[*:2])N[*:1]; Desaminotyrosyl = O=C(CCc1ccc(O)cc1)*; αMeF = C[C@](N)(Cc1ccccc1)C(=O)O; AEEA = NCCOCCOCC(=O)O; Aib = CC(C)(N)C(=O)O
# T1: human gastric inhibitory peptide receptor (GIPR) (human, UniProt P48546 22-466)
# T1 sequence (looked up): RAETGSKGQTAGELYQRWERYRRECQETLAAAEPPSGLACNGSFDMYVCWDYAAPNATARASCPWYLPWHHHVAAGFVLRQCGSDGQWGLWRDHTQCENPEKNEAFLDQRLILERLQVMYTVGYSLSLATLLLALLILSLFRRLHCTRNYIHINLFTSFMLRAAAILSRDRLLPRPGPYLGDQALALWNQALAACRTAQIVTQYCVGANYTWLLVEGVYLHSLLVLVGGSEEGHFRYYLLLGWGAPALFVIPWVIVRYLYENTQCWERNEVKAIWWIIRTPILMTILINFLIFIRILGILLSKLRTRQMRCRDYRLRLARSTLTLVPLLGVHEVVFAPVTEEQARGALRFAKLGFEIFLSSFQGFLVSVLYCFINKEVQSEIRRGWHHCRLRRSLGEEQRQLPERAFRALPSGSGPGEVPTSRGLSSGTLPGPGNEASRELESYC
# B1: Example 146 (peptide)
# peptide: Y[Aib]EGT[αMePhe(2-F)]TSDYSIXLDEKAQ[Aib]EFIQYLIEGGPSSGAPPPS-NH2
# modifications: not fully specified (residues 13, 17); printed as Y-Aib-EGT-αMeF(2F)-TSDYSI-αMeF-LDEK((2-[2-(2-Amino-ethoxy)-ethoxy]-acetyl)2-(γ-Glu)-CO-(CH2)18-CO2H)AQ-Aib-EFIQYLIEGGPSSGAPPPS-NH2
# B2: Example 143 (peptide)
# peptide: Y[Aib]EGT[αMeF]TSDYSIXLDKKAQ[Aib][Aib]FIEYLIEGGPSSGAPPPS-NH2
# modifications: not fully specified (residues 13, 17); printed as Y-Aib-EGT-αMeF-TSDYSI-αMeF-LDKK((2-[2-(2-Amino-ethoxy)-ethoxy]-acetyl)2-(γ-Glu)-CO-(CH2)18-CO2H)AQ-Aib-Aib-FIEYLIEGGPSSGAPPPS-NH2
# B3: Example 141 (peptide)
# peptide: Y[Aib]EGT[αMeF]TSDYSIXLDKKAQ[Aib]IFIEYLIEGGPSSGAPPPS-NH2
# modifications: not fully specified (residues 13, 17); printed as Y-Aib-EGT-αMeF-TSDYSI-αMeF-LDKK((2-[2-(2-Amino-ethoxy)-ethoxy]-acetyl)2-(γ-Glu)-CO-(CH2)18-CO2H)AQ-Aib-IFIEYLIEGGPSSGAPPPS-NH2
# B4: Example 145 (peptide)
# peptide: Y[Aib]EGT[αMeF]TSDASIXLDKKAQ[Aib]AFIEYLIEGGPSSGAPPPS-NH2
# modifications: not fully specified (residues 13, 17); printed as Y-Aib-EGT-αMeF-TSDASI-αMeF-LDKK((2-[2-(2-Amino-ethoxy)-ethoxy]-acetyl)2-(γ-Glu)-CO-(CH2)18-CO2H)AQ-Aib-AFIEYLIEGGPSSGAPPPS-NH2
# B5: Example 144 (peptide)
# peptide: Y[Aib]EGT[αMeF]TSDYSIXLDKKAQH[Aib]FIEYLIEGGPSSGAPPPS-NH2
# modifications: not fully specified (residues 13, 17); printed as Y-Aib-EGT-αMeF-TSDYSI-αMeF-LDKK((2-[2-(2-Amino-ethoxy)-ethoxy]-acetyl)2-(γ-Glu)-CO-(CH2)18-CO2H)AQH-Aib-FIEYLIEGGPSSGAPPPS-NH2
# B6: Example 134 (peptide)
# peptide: [Desaminotyrosyl][Aib]EGT[αMePhe(2-F)]TSDYSIXLDEK([AEEA-AEEA-γGlu-C20 diacid])AQ[Aib]EFIEYLIEGGPSSGAPPPS-NH2
# modifications: not fully specified (residue 13); printed as DesTyr-Aib-EGT-αMeF(2F)-TSDYSI-αMeF-LDEK((2-[2-(2-Amino-ethoxy)-ethoxy]-acetyl)2-(γ-Glu)-CO-(CH2)18-CO2H)AQ-Aib-EFIEYLIEGGPSSGAPPPS-NH2
# B7: Example 142 (peptide)
# peptide: Y[Aib]EGT[αMeF]TSDYSIXLDKKAQ[Aib]HFIEYLIEGGPSSGAPPPS-NH2
# modifications: not fully specified (residues 13, 17); printed as Y-Aib-EGT-αMeF-TSDYSI-αMeF-LDKK((2-[2-(2-Amino-ethoxy)-ethoxy]-acetyl)2-(γ-Glu)-CO-(CH2)18-CO2H)AQ-Aib-HFIEYLIEGGPSSGAPPPS-NH2
# B8: Example 149 (peptide)
# peptide: Y[Aib]EGT[αMePhe(2-F)]TSDYSIXLDEKAQ[Aib]EFIVYLIEGGPSSGAPPPS-NH2
# modifications: not fully specified (residues 13, 17); printed as Y-Aib-EGT-αMeF(2F)-TSDYSI-αMeF-LDEK((2-[2-(2-Amino-ethoxy)-ethoxy]-acetyl)2-(γ-Glu)-CO-(CH2)18-CO2H)AQ-Aib-EFIVYLIEGGPSSGAPPPS-NH2
# B9: Example 148 (peptide)
# peptide: Y[Aib]EGT[αMePhe(2-F)]TSDYSIXLDEKAQ[Aib]EFIAYLIEGGPSSGAPPPS-NH2
# modifications: not fully specified (residues 13, 17); printed as Y-Aib-EGT-αMeF(2F)-TSDYSI-αMeF-LDEK((2-[2-(2-Amino-ethoxy)-ethoxy]-acetyl)2-(γ-Glu)-CO-(CH2)18-CO2H)AQ-Aib-EFIAYLIEGGPSSGAPPPS-NH2
# B10: Example 139 (peptide)
# peptide: Y[Aib]EGT[αMeF]TSDYSIXLDKK([AEEA-AEEA-γGlu-C20 diacid])AQ[Aib]TFIEYLIEGGPSSGAPPPS-NH2
# modifications: not fully specified (residue 13); printed as Y-Aib-EGT-αMeF-TSDYSI-αMeF-LDKK((2-[2-(2-Amino-ethoxy)-ethoxy]-acetyl)2-(γ-Glu)-CO-(CH2)18-CO2H)AQ-Aib-TFIEYLIEGGPSSGAPPPS-NH2
# B11: Example 135 (peptide)
# peptide: H[Aib]NGTFTSDYSILLDKK([AEEA-AEEA-γGlu-C20 diacid])AQ[Aib]AFIEYLIEGGPSSGAPPPS-NH2
# modifications: N-terminus assumed
# SMILES: CC[C@H](C)[C@H](NC(=O)[C@H](CC(C)C)NC(=O)[C@H](Cc1ccc(O)cc1)NC(=O)[C@H](CCC(=O)O)NC(=O)[C@@H](NC(=O)[C@H](Cc1ccccc1)NC(=O)[C@H](C)NC(=O)C(C)(C)NC(=O)[C@H](CCC(N)=O)NC(=O)[C@H](C)NC(=O)[C@H](CCCCNC(=O)COCCOCCNC(=O)COCCOCCNC(=O)CC[C@H](NC(=O)CCCCCCCCCCCCCCCCCCC(=O)O)C(=O)O)NC(=O)[C@H](CCCCN)NC(=O)[C@H](CC(=O)O)NC(=O)[C@H](CC(C)C)NC(=O)[C@H](CC(C)C)NC(=O)[C@@H](NC(=O)[C@H](CO)NC(=O)[C@H](Cc1ccc(O)cc1)NC(=O)[C@H](CC(=O)O)NC(=O)[C@H](CO)NC(=O)[C@@H](NC(=O)[C@H](Cc1ccccc1)NC(=O)[C@@H](NC(=O)CNC(=O)[C@H](CC(N)=O)NC(=O)C(C)(C)NC(=O)[C@@H](N)Cc1c[nH]cn1)[C@@H](C)O)[C@@H](C)O)[C@@H](C)CC)[C@@H](C)CC)C(=O)N[C@@H](CCC(=O)O)C(=O)NCC(=O)NCC(=O)N1CCC[C@H]1C(=O)N[C@@H](CO)C(=O)N[C@@H](CO)C(=O)NCC(=O)N[C@@H](C)C(=O)N1CCC[C@H]1C(=O)N1CCC[C@H]1C(=O)N1CCC[C@H]1C(=O)N[C@@H](CO)C(N)=O
# B12: Example 140 (peptide)
# peptide: Y[Aib]EGT[αMeF]TSDYSIXLDKKAQ[Aib]DFIEYLIEGGPSSGAPPPS-NH2
# modifications: not fully specified (residues 13, 17); printed as Y-Aib-EGT-αMeF-TSDYSI-αMeF-LDKK((2-[2-(2-Amino-ethoxy)-ethoxy]-acetyl)2-(γ-Glu)-CO-(CH2)18-CO2H)AQ-Aib-DFIEYLIEGGPSSGAPPPS-NH2
# B13: Example 136 (peptide)
# peptide: Y[Aib]EGTFTSDASILLDKK([AEEA-AEEA-γGlu-C20 diacid])AQ[Aib]AFIEYLIEAGPSSGAPPPS-NH2
# modifications: N-terminus assumed
# SMILES: CC[C@H](C)[C@H](NC(=O)[C@H](CC(C)C)NC(=O)[C@H](Cc1ccc(O)cc1)NC(=O)[C@H](CCC(=O)O)NC(=O)[C@@H](NC(=O)[C@H](Cc1ccccc1)NC(=O)[C@H](C)NC(=O)C(C)(C)NC(=O)[C@H](CCC(N)=O)NC(=O)[C@H](C)NC(=O)[C@H](CCCCNC(=O)COCCOCCNC(=O)COCCOCCNC(=O)CC[C@H](NC(=O)CCCCCCCCCCCCCCCCCCC(=O)O)C(=O)O)NC(=O)[C@H](CCCCN)NC(=O)[C@H](CC(=O)O)NC(=O)[C@H](CC(C)C)NC(=O)[C@H](CC(C)C)NC(=O)[C@@H](NC(=O)[C@H](CO)NC(=O)[C@H](C)NC(=O)[C@H](CC(=O)O)NC(=O)[C@H](CO)NC(=O)[C@@H](NC(=O)[C@H](Cc1ccccc1)NC(=O)[C@@H](NC(=O)CNC(=O)[C@H](CCC(=O)O)NC(=O)C(C)(C)NC(=O)[C@@H](N)Cc1ccc(O)cc1)[C@@H](C)O)[C@@H](C)O)[C@@H](C)CC)[C@@H](C)CC)C(=O)N[C@@H](CCC(=O)O)C(=O)N[C@@H](C)C(=O)NCC(=O)N1CCC[C@H]1C(=O)N[C@@H](CO)C(=O)N[C@@H](CO)C(=O)NCC(=O)N[C@@H](C)C(=O)N1CCC[C@H]1C(=O)N1CCC[C@H]1C(=O)N1CCC[C@H]1C(=O)N[C@@H](CO)C(N)=O
# Biological target: T1, human gastric inhibitory peptide …
# Test: cell-based or functional assay
Binder,hGIPR cAMP EC50 ratio,hGIPR cAMP Rel EC50 [nM]
B1,1.98,0.0583
B2,2.78,0.0515
B3,0.538,0.2
B4,2.46,0.0514
B5,3.6,0.0375
B6,1.43,0.104
B7,2.84,0.0489
B8,1.82,0.0711
B9,2.7,0.043
B10,3.61,0.037
B11,0.482,0.373
B12,3.76,0.0349
B13,0.0544,3.39

# Biological target: human GLP-1 receptor (GLP-1R) (human, UniProt P43220 24-463)
# Test: cell-based or functional assay
Binder,hGLP1R cAMP EC50 ratio,hGLP1R cAMP Rel EC50 [nM]
B1,0.951,0.0604
B2,0.714,0.0745
B3,0.414,0.0975
B4,1.22,0.0427
B5,0.851,0.0608
B6,0.942,0.0654
B7,1.22,0.0426
B8,0.484,0.0916
B9,0.859,0.0626
B10,1.13,0.0417
B11,0.509,0.131
B12,1.16,0.0424
B13,1.1,0.06
